These are literature values, as cited in patent US11324773B2, “Compounds, compositions and methods for inhibiting a pathogen and/or modifying mucus” (The University of North Carolina at Chapel Hill, priority 2017, dated 2022).

One data set has as its system HBE mucus. The settings on record: 30 μM, 24 h, versus controls.
The next data set concerns expectorated sputum. To be noted: patients with CF, 10 d, 2.5 mg twice daily.

As for `CC(=O)N[C@@H](CS)C(=O)O` [N-acetylcysteine], in the data set with HBE mucus, the “decrease of viscosity and elasticity of HBE mucus” value was “by an order of magnitude”.

B1: dornase alfa (protein, UniProt P24855 23-282, looked up)
Deoxyribonuclease-1: LKIAAFNIQTFGETKMSNATLVSYIVQILSRYDIALVQEVRDSHLTAVGKLLDNLNQDAPDTYHYVVSEPLGRNSYKERYLFVYRPDQVSAVDSYYYDDGCEPCGNDTFNREPAIVRFFSRFTEVREFAIVPLHAAPGDAVAEIDALYDVYLDVQEKWGLEDVMLMGDFNAGCSYVRPSQWSSIRLWTSPTFQWLIPDSADTTATPTHCAYDRIVVAGMLLRGAVVPDSALPFNFQAAYGLSDQLAQAISDHYPVEVMLK
notes: conventional mucolytic therapy used to treat CF
On to B1, for which, in the data set with expectorated sputum, the “reduction of expectorated sputum elasticity” value is 68% and the “reduction of expectorated sputum viscosity” value is given as 59%.
